Experimental data from US20200115416A1 (REGENTS OF THE UNIVERSITY OF MINNESOTA, published 2020).
Where two headings read alike, the source gives them in different places. Square brackets hold non-standard residues; d marks the D form. hPhe = N[C@@H](CCc1ccccc1)C(=O)O; Nle = CCCC[C@H](N)C(=O)O; Dap = NC[C@H](N)C(=O)O

What was measured:
Experiment in all cases: cell-based or functional assay
[1] = biological target: T1, mouse melanocortin-3 receptor (mouse, UniProt P33033 1-323)
[2] = biological target: T2, mouse melanocortin-1 receptor (mouse, UniProt Q01727 1-315)
T2 sequence (Q01727 whole entry): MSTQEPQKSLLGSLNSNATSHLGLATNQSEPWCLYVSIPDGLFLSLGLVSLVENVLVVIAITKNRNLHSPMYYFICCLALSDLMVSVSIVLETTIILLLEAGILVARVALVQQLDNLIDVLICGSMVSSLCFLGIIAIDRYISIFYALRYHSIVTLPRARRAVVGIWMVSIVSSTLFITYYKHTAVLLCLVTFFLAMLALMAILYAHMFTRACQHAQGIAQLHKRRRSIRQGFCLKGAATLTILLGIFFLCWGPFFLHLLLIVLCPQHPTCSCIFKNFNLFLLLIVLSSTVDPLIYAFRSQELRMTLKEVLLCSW

[3] = biological target: T3, mouse melanocortin-5 receptor (mouse, UniProt P41149 1-325)
T3 sequence (P41149 whole entry): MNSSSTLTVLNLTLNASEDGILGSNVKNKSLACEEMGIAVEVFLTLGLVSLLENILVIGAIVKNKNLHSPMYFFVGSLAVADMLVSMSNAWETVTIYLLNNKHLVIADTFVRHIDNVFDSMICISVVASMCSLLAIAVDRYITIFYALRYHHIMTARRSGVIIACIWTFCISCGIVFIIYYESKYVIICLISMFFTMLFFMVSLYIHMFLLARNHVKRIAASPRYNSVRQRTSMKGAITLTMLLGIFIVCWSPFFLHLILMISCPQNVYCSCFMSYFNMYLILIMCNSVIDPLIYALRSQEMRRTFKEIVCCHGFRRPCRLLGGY

[4] = biological target: T4, mouse melanocortin-4 receptor (mouse, UniProt P56450 1-332)
T4 sequence (P56450 whole entry): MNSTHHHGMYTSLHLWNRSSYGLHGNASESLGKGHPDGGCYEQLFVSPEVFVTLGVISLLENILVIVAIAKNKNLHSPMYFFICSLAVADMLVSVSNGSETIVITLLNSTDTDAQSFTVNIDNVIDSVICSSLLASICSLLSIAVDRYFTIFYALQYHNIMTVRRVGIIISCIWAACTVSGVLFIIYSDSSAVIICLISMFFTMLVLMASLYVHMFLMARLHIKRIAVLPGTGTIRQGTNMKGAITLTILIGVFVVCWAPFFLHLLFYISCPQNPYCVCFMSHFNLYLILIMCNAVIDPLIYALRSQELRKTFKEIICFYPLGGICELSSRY

[5] = biological target: T2, mouse melanocortin-1 receptor; remark: listed apart in the source
[6] = biological target: T1, mouse melanocortin-3 receptor; remark: listed apart in the source
[7] = biological target: T2, mouse melanocortin-1 receptor; remark: listed apart in the source
[8] = biological target: T3, mouse melanocortin-5 receptor; remark: listed apart in the source
[9] = biological target: T4, mouse melanocortin-4 receptor; remark: listed apart in the source

T1 sequence (P33033 whole entry): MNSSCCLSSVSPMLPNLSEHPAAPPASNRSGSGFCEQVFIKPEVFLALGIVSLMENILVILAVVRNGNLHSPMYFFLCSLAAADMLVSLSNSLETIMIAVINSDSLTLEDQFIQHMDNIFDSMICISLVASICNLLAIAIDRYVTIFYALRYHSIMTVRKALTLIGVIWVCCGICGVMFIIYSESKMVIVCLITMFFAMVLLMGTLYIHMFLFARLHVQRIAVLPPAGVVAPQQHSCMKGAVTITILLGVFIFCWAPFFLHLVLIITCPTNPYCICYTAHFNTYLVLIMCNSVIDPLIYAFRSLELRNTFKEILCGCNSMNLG

Row | Binder | antagonist pA2 (Schild, agonist NDP-MSH) [1] | agonist EC50 (cAMP AlphaScreen) [2] [µM] | EC50 (cAMP AlphaScreen, inverse agonist) [3] [µM] | antagonist pA2 (Schild, agonist NDP-MSH) [4] | other results
1 | cyclo(PRFF[Dap]A[Nle][dP]) (SMILES CCCC[C@@H]1NC(=O)[C@H](C)NC(=O)[C@H](CN)NC(=O)[C@H](Cc2ccccc2)NC(=O)[C@H](Cc2ccccc2)NC(=O)[C@H](CCCNC(=N)N)NC(=O)[C@@H]2CCCN2C(=O)[C@H]2CCCN2C1=O) [c[Pro-Arg-Phe-Phe-Dap-Ala-Nle-DPro]] | 7.1 | 0.19 | > 100 | 9 | –
2 | cyclo(PRFF[Dap]S[Nle][dP]) (SMILES CCCC[C@@H]1NC(=O)[C@H](CO)NC(=O)[C@H](CN)NC(=O)[C@H](Cc2ccccc2)NC(=O)[C@H](Cc2ccccc2)NC(=O)[C@H](CCCNC(=N)N)NC(=O)[C@@H]2CCCN2C(=O)[C@H]2CCCN2C1=O) [c[Pro-Arg-Phe-Phe-Dap-Ser-Nle-DPro]] | 6.5 | > 100 | > 100 | 9.1 | –
3 | cyclo(PR[dF]FNAF[dP]) [c[Pro-Arg-DPhe-Phe-Asn-Ala-Phe-DPro]] | – | – | – | – | agonist EC50 (cAMP AlphaScreen) [5]: 0.7 µM
4 | cyclo(P[dR][dF]FNAF[dP]) [c[Pro-DArg-DPhe-Phe-Asn-Ala-Phe-DPro]] | – | – | – | – | agonist EC50 (cAMP AlphaScreen) [5]: 0.5 µM; partial agonist efficacy, % of NDP-MSH [5]: 90%
5 | cyclo(PRF[dF]NAF[dP]) [c[Pro-Arg-Phe-DPhe-Asn-Ala-Phe-DPro]] | – | – | – | – | % maximal NDP-MSH response at 100 µM (cAMP AlphaScreen) [5]: 50%
6 | cyclo(PRFFRSF[dP]) (SMILES N=C(N)NCCC[C@@H]1NC(=O)[C@H](Cc2ccccc2)NC(=O)[C@H](Cc2ccccc2)NC(=O)[C@H](CCCNC(=N)N)NC(=O)[C@@H]2CCCN2C(=O)[C@H]2CCCN2C(=O)[C@H](Cc2ccccc2)NC(=O)[C@H](CO)NC1=O) [c[Pro-Arg-Phe-Phe-Arg-Ser-Phe-DPro]] | 7.1 | > 100 | > 100 | 9 | –
7 | cyclo(PRFFRA[Nle][dP]) (SMILES CCCC[C@@H]1NC(=O)[C@H](C)NC(=O)[C@H](CCCNC(=N)N)NC(=O)[C@H](Cc2ccccc2)NC(=O)[C@H](Cc2ccccc2)NC(=O)[C@H](CCCNC(=N)N)NC(=O)[C@@H]2CCCN2C(=O)[C@H]2CCCN2C1=O) [c[Pro-Arg-Phe-Phe-Arg-Ala-Nle-DPro]] | 7.5 | > 100 | > 100 | 9.1 | –
8 | cyclo(PR[dF][dF]NAF[dP]) [c[Pro-Arg-DPhe-DPhe-Asn-Ala-Phe-DPro]] | – | – | – | – | agonist EC50 (cAMP AlphaScreen) [5]: 0.8 µM; partial agonist efficacy, % of NDP-MSH [5]: 85%
9 | cyclo(PRF[hPhe]NA[Nle][dP]) (SMILES CCCC[C@@H]1NC(=O)[C@H](C)NC(=O)[C@H](CC(N)=O)NC(=O)[C@H](CCc2ccccc2)NC(=O)[C@H](Cc2ccccc2)NC(=O)[C@H](CCCNC(=N)N)NC(=O)[C@@H]2CCCN2C(=O)[C@H]2CCCN2C1=O) [c[Pro-Arg-Phe-hPhe-Asn-Ala-Nle-DPro]] | – | – | > 100 | – | –
10 | cyclo(PRF[hPhe][Dap]A[Nle][dP]) (SMILES CCCC[C@@H]1NC(=O)[C@H](C)NC(=O)[C@H](CN)NC(=O)[C@H](CCc2ccccc2)NC(=O)[C@H](Cc2ccccc2)NC(=O)[C@H](CCCNC(=N)N)NC(=O)[C@@H]2CCCN2C(=O)[C@H]2CCCN2C1=O) [c[Pro-Arg-Phe-hPhe-Dap-Ala-Nle-DPro]] | 6.7 | > 100 | > 100 | 9.1 | –
11 | cyclo(PRF[hPhe]NS[Nle][dP]) (SMILES CCCC[C@@H]1NC(=O)[C@H](CO)NC(=O)[C@H](CC(N)=O)NC(=O)[C@H](CCc2ccccc2)NC(=O)[C@H](Cc2ccccc2)NC(=O)[C@H](CCCNC(=N)N)NC(=O)[C@@H]2CCCN2C(=O)[C@H]2CCCN2C1=O) [c[Pro-Arg-Phe-hPhe-Asn-Ser-Nle-DPro]] | 6.3 | > 100 | > 100 | 9.2 | –
12 | cyclo(PRFFLAF[dP]) (SMILES CC(C)C[C@@H]1NC(=O)[C@H](Cc2ccccc2)NC(=O)[C@H](Cc2ccccc2)NC(=O)[C@H](CCCNC(=N)N)NC(=O)[C@@H]2CCCN2C(=O)[C@H]2CCCN2C(=O)[C@H](Cc2ccccc2)NC(=O)[C@H](C)NC1=O) [c[Pro-Arg-Phe-Phe-Leu-Ala-Phe-DPro]] | – | – | – | – | agonist EC50 (cAMP AlphaScreen) [6]: > 100 µM; antagonist pA2 (Schild, agonist NDP-MSH) [6]: 5.7; agonist EC50 (cAMP AlphaScreen) [7]: > 100 µM; inverse agonist apparent potency [8]: 0.11 µM; inverse agonist, % decrease from basal cAMP [8]: -20%; agonist EC50 (cAMP AlphaScreen) [9]: > 100 µM; antagonist pA2 (Schild, agonist NDP-MSH) [9]: 7.34
13 | cyclo(P[dR][dF][dF]NAF[dP]) [c[Pro-DArg-DPhe-DPhe-Asn-Ala-Phe-DPro]] | – | – | – | – | agonist EC50 (cAMP AlphaScreen) [5]: 1.3 µM; partial agonist efficacy, % of NDP-MSH [5]: 85%
14 | cyclo(P[dR]FFNAF[dP]) [c[Pro-DArg-Phe-Phe-Asn-Ala-Phe-DPro]] | – | – | – | – | % maximal NDP-MSH response at 100 µM (cAMP AlphaScreen) [5]: 50%
15 | cyclo(PRFFRAF[dP]) [c[Pro-Arg-Phe-Phe-Arg-Ala-Phe-DPro]] | 7.4 | 0.6 | > 100 | 8.7 | partial agonist, % receptor stimulation [2]: 25%
16 | cyclo(PRFFTAF[dP]) (SMILES C[C@@H]1NC(=O)[C@H]([C@@H](C)O)NC(=O)[C@H](Cc2ccccc2)NC(=O)[C@H](Cc2ccccc2)NC(=O)[C@H](CCCNC(=N)N)NC(=O)[C@@H]2CCCN2C(=O)[C@H]2CCCN2C(=O)[C@H](Cc2ccccc2)NC1=O) [c[Pro-Arg-Phe-Phe-Thr-Ala-Phe-DPro]] | – | – | – | – | agonist EC50 (cAMP AlphaScreen) [6]: > 100 µM; antagonist pA2 (Schild, agonist NDP-MSH) [6]: 6.4; agonist EC50 (cAMP AlphaScreen) [7]: > 100 µM; inverse agonist apparent potency [8]: 0.05 µM; inverse agonist, % decrease from basal cAMP [8]: -20%; agonist EC50 (cAMP AlphaScreen) [9]: > 100 µM; antagonist pA2 (Schild, agonist NDP-MSH) [9]: 7.76
17 | cyclo(PRFF[Nle]AF[dP]) [c[Pro-Arg-Phe-Phe-Nle-Ala-Phe-DPro]] | – | – | – | – | agonist EC50 (cAMP AlphaScreen) [6]: > 100 µM; antagonist pA2 (Schild, agonist NDP-MSH) [6]: < 5.5; agonist EC50 (cAMP AlphaScreen) [7]: > 100 µM; agonist EC50 (cAMP AlphaScreen) [8]: > 100 µM; agonist EC50 (cAMP AlphaScreen) [9]: > 100 µM; antagonist pA2 (Schild, agonist NDP-MSH) [9]: 6.9

Now from value to binder, other results behind:

Row | antagonist pA2 (Schild, agonist NDP-MSH) [1] | agonist EC50 (cAMP AlphaScreen) [2] [µM] | EC50 (cAMP AlphaScreen, inverse agonist) [3] [µM] | antagonist pA2 (Schild, agonist NDP-MSH) [4] | Binder | other results
18 | 7.1 | 0.56 | > 100 | – | PRFFXAFP (head-to-tail cyclic; hPhe at 4; Dap at 5; DPro at 8) [c[Pro-Arg-Phe-hPhe-Dap-Ala-Phe-DPro]] | partial agonist, % receptor stimulation [2]: 70%
19 | 6.5 | – | > 100 | 8.6 | cyclo(PRF[hPhe]NSF[dP]) (SMILES N=C(N)NCCC[C@@H]1NC(=O)[C@@H]2CCCN2C(=O)[C@H]2CCCN2C(=O)[C@H](Cc2ccccc2)NC(=O)[C@H](CO)NC(=O)[C@H](CC(N)=O)NC(=O)[C@H](CCc2ccccc2)NC(=O)[C@H](Cc2ccccc2)NC1=O) [c[Pro-Arg-Phe-hPhe-Asn-Ser-Phe-DPro]] | % receptor stimulation at 100 µM (cAMP AlphaScreen) [2]: 40%
20 | 7.1 | > 100 | > 100 | 9.6 | cyclo(PRFFRS[Nle][dP]) (SMILES CCCC[C@@H]1NC(=O)[C@H](CO)NC(=O)[C@H](CCCNC(=N)N)NC(=O)[C@H](Cc2ccccc2)NC(=O)[C@H](Cc2ccccc2)NC(=O)[C@H](CCCNC(=N)N)NC(=O)[C@@H]2CCCN2C(=O)[C@H]2CCCN2C1=O) [c[Pro-Arg-Phe-Phe-Arg-Ser-Nle-DPro]] | –
21 | 6.8 | 0.6 | > 100 | 9.1 | cyclo(PRFF[Dap]SF[dP]) (SMILES N=C(N)NCCC[C@@H]1NC(=O)[C@@H]2CCCN2C(=O)[C@H]2CCCN2C(=O)[C@H](Cc2ccccc2)NC(=O)[C@H](CO)NC(=O)[C@H](CN)NC(=O)[C@H](Cc2ccccc2)NC(=O)[C@H](Cc2ccccc2)NC1=O) [c[Pro-Arg-Phe-Phe-Dap-Ser-Phe-DPro]] | partial agonist, % receptor stimulation [2]: 85%
22 | 7.2 | – | > 100 | 9.2 | cyclo(PRF[hPhe][Dap]SF[dP]) (SMILES N=C(N)NCCC[C@@H]1NC(=O)[C@@H]2CCCN2C(=O)[C@H]2CCCN2C(=O)[C@H](Cc2ccccc2)NC(=O)[C@H](CO)NC(=O)[C@H](CN)NC(=O)[C@H](CCc2ccccc2)NC(=O)[C@H](Cc2ccccc2)NC1=O) [c[Pro-Arg-Phe-hPhe-Dap-Ser-Phe-DPro]] | % receptor stimulation at 100 µM (cAMP AlphaScreen) [2]: 40%
23 | 6.6 | 2.6 | – | 8.5 | cyclo(PRFFNS[Nle][dP]) (SMILES CCCC[C@@H]1NC(=O)[C@H](CO)NC(=O)[C@H](CC(N)=O)NC(=O)[C@H](Cc2ccccc2)NC(=O)[C@H](Cc2ccccc2)NC(=O)[C@H](CCCNC(=N)N)NC(=O)[C@@H]2CCCN2C(=O)[C@H]2CCCN2C1=O) [c[Pro-Arg-Phe-Phe-Asn-Ser-Nle-DPro]] | partial agonist, % receptor stimulation [2]: 75%
